{
  "source": "patent US10704056B2",
  "about": "“Constitutively active ABA receptor mutants” (The Regents of the University of California, priority 2011, dated 2020)",
  "molecules": {"B1": {"name": "PYL2^CA3: PYL2 mutant (H65P, V87F, F165V); expressed in plants as 35S-driven GFP fusion (protein)", "chain": "HHHHHHMSSSPAVKGLTDEEQKTLEPVIKTYHQFEPDPTTCTSLITQRIHAPASVVWPLIRRFDNPERYKPFVKRCRLISGDGDVGSVREVTFISGLPASTSTERLEFVDDDHRVLSFRVVGGEHRLKNYKSVTSVNEFLNQDSGKVYTVVLESYTVDIPEGNTEEDTKMVVDTVVKLNLQKLGVAATSAPMHDDE"}},
  "test_system": "ABA-regulated genes Em6, LEA and Rd29b",
  "experiment": "qRT-PCR of ABA-regulated genes in imbibed seeds",
  "assay_type": "in vivo, Arabidopsis",
  "settings": "seeds imbibed 32 hours, no ABA treatment; 35S-driven lines",
  "method": "To investigate if other ABA responses are affected in the PYL2^CA3 lines, we profiled the expression levels of several ABA-regulated genes using quantitative RT-PCR (qRT-PCR). For these experiments, seeds of Col, 35S::PYL2, and two independent 35S:: PYL2^CA3 transgenic lines were imbibed for 32 hours in either water or 5 μM ABA at room temperature under continuous illumination, after which RNA was isolated using Concert™ Plant RNA Reagent and utilized in qRT-PCR reactions using primers for the ABA-regulated genes Em6 (At2g40170), LEA (At2g21490), and Rd29b (At5g52300). Biological duplicates with triple technical replicate measurements were conducted and gene expression levels were determined. […] Real-time quantitative PCR analysis was performed by ΔΔCt method of relative quantification. […]\nWild type or transgenic lines were imbibed for 32 hours in either water or 5 μM ABA at room temperature under continuous illumination, after which RNA was isolated using Concert™ Plant RNA Reagent followed by LiCl2 precipitation and DNase treated using RNase-free DNAse (Ambion). […] Biological duplicates with triple technical replicate measurements were conducted and gene expression levels were determined. […] Real-time quantitative PCR analysis was performed by ΔΔCt method of relative quantification. […]",
  "data": [
    {"molecule": "B1", "values": [
      {"measurement": "levels of ABA-regulated genes (Em6, LEA, Rd29b)", "value": "elevated levels of ABA-regulated genes"}
    ]}
  ]
}
